Experimental data from patent US20260274985A1 (MYTHIC THERAPEUTICS, published 2026).
Changes are numbered by the printed parent chain.

T1: Human TROP2 Protein, His Tag (Acro Biosystems) (human, UniProt P09758 27-274)
T1 construct: Bought protein; not shown: His tag
T1 sequence (looked up): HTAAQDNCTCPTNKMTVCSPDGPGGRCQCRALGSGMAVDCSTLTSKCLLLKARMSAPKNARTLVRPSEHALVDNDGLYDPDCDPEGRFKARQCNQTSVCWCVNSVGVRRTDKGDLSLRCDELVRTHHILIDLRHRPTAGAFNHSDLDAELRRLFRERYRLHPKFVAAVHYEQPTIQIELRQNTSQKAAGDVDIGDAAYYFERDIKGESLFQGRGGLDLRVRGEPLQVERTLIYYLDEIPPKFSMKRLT

T2: Human TROP2 Protein, His Tag (Acro Biosystems) (human, UniProt P09758 27-274)
T2 construct: also called TACSTD2; not shown: His tag
T2 sequence (looked up): T1 sequence (looked up)

T3: Human TROP2 Protein, His Tag (Acro Biosystems) (human, UniProt P09758 27-274)
T3 construct: Bought antigen used at 50 nM in the Octet screen; also called TACSTD2; not shown: His tag
T3 sequence (looked up): T1 sequence (looked up)

B1: MYT11622 (antibody, V domains shown)
VH: QVQLQQSGSELKKPGASVKVSCKASGYTFTNYGMNWVKQAPGQGLKWMGWINTYTGEPTYTDDFKGRFAFSLDTSVSTAYLQISSLKADDTAVYFCARGGFGSSYWYFDVWGQGSLVTVSS
VL: DIQLTQSPSSLSASVGDRVSITCKASQDVSIAVAWYQQKPGKAPKLLIYSASHRYTGVPDRFSGSGSGTDFTLTISSLQPEDFAVYYCQQHYITPLTFGAGTKVEIK
notes: Sacituzumab variant, His at LCV position 53 (L2 04)
B2: MYT11630 (antibody, V domains shown)
VH: B1 VH
VL: B1 VL with H53Y, I93H
notes: Sacituzumab variant, His at LCV position 93 (L3 05)
B3: MYT13375 (antibody, V domains shown)
VH: B1 VH with G33H
VL: B1 VL with S30H, A51H, H53Y
notes: Sacituzumab HC-LC pairing variant
B4: MYT11627 (antibody, V domains shown)
VH: B1 VH
VL: B1 VL with H53Y, Q90H
notes: Sacituzumab variant, His at LCV position 90 (L3 02)
B5: MYT13390 (antibody, V domains shown)
VH: B1 VH with Y32H
VL: B1 VL with V33H
notes: as for B3
B6: MYT11629 (antibody, V domains shown)
VH: B1 VH
VL: B1 VL with H53Y, Y92H
notes: Sacituzumab variant, His at LCV position 92 (L3 04)
B7: MYT11633 (antibody, V domains shown)
VH: B1 VH
VL: B1 VL with H53Y, L96H
notes: Sacituzumab variant, His at LCV position 96 (L3 08)
B8: MYT11631 (antibody, V domains shown)
VH: B1 VH
VL: B1 VL with H53Y, T94H
notes: Sacituzumab variant, His at LCV position 94 (L3 06)
B9: MYT13391 (antibody, V domains shown)
VH: B1 VH with G33H
VL: B1 VL with V33H
notes: as for B3
B10: MYT11625 (antibody, V domains shown)
VH: B1 VH
VL: B1 VL with H53Y, T56H
notes: Sacituzumab variant, His at LCV position 56 (L2 07)
B11: MYT13380 (antibody, V domains shown)
VH: B1 VH with K65H
VL: B1 VL with S30H, A51H, H53Y
notes: as for B3
B12: MYT11634 (antibody, V domains shown)
VH: B1 VH
VL: B1 VL with H53Y, T97H
notes: Sacituzumab variant, His at LCV position 97 (L3 09)
B13: MYT11626 (antibody, V domains shown)
VH: B1 VH
VL: B1 VL with H53Y, Q89H
notes: Sacituzumab variant, His at LCV position 89 (L3 01)
B14: MYT13389 (antibody, V domains shown)
VH: B1 VH with G66H
VL: B1 VL with S30H, S52H, H53Y
notes: as for B3
B15: MYT13367 (antibody, V domains shown)
VH: B1 VH with G33H
VL: B1 VL with S30H, V33H, H53Y
notes: as for B3
B16: MYT11623 (antibody, V domains shown)
VH: B1 VH
VL: B1 VL with H53Y, R54H
notes: Sacituzumab variant, His at LCV position 54 (L2 05)
B17: MYT11628 (antibody, V domains shown)
VH: B1 VH
VL: B1 VL with H53Y, H91A
notes: Sacituzumab variant, Ala at LCV position 91 (L3 03; His in the parent)
B18: MYT13384 (antibody, V domains shown)
VH: B1 VH with Y60H
VL: B1 VL with S30H, S52H, H53Y
notes: as for B3
B19: MYT11624 (antibody, V domains shown)
VH: B1 VH
VL: B1 VL with H53Y, Y55H
notes: Sacituzumab variant, His at LCV position 55 (L2 06)
B20: MYT11632 (antibody, V domains shown)
VH: B1 VH
VL: B1 VL with H53Y, P95H
notes: Sacituzumab variant, His at LCV position 95 (L3 07)
B21: MYT13381 (antibody, V domains shown)
VH: B1 VH with G66H
VL: B1 VL with S30H, A51H, H53Y
notes: as for B3
B22: MYT11756 (antibody, V domains shown)
VH: QVQLQESGPGLVKPSETLSLTCTVSGGSISSYGVHWIRQPPGKGLEWIGVIWTSGVTDYNSALMGRVTISVDTSKNQFSLKLSSVTAADTAVYYCARDGDYDRYTMDYWGQGTLVTVSS
VL: DIVMTQSPDSLAVSLGERATINCRASKSVSTSGYSHMHWYQQKPGQPPKLLIYLASNLESGVPDRFSGSGSGTDFTLTISSLQAEDVAVYYCQHSRELPYTFGQGTKLEIK
notes: hu7E6SVG variant, His at LCV position 36 (L1 13); screened as IgG in Expi293 supernatant
B23: MYT11759 (antibody, V domains shown)
VH: B22 VH
VL: B22 VL with H36Y, L54H
notes: hu7E6SVG variant, His at LCV position 54 (L2 01); screened as IgG in Expi293 supernatant
B24: MYT11768 (antibody, V domains shown)
VH: B22 VH
VL: B22 VL with H36Y, S95H
notes: hu7E6SVG variant, His at LCV position 95 (L3 03); screened as IgG in Expi293 supernatant
B25: MYT11761 (antibody, V domains shown)
VH: B22 VH
VL: B22 VL with H36Y, S56H
notes: hu7E6SVG variant, His at LCV position 56 (L2 03); screened as IgG in Expi293 supernatant
B26: MYT11758 (antibody, V domains shown)
VH: B22 VH
VL: B22 VL with H36Y, H38A
notes: hu7E6SVG variant, Ala in place of His at LCV position 38 (L1 15); screened as IgG in Expi293 supernatant
B27: MYT11760 (antibody, V domains shown)
VH: B22 VH
VL: B22 VL with H36Y, A55H
notes: hu7E6SVG variant, His at LCV position 55 (L2 02); screened as IgG in Expi293 supernatant
B28: MYT11763 (antibody, V domains shown)
VH: B22 VH
VL: B22 VL with H36Y, L58H
notes: hu7E6SVG variant, His at LCV position 58 (L2 05); screened as IgG in Expi293 supernatant
B29: MYT11762 (antibody, V domains shown)
VH: B22 VH
VL: B22 VL with H36Y, N57H
notes: hu7E6SVG variant, His at LCV position 57 (L2 04); screened as IgG in Expi293 supernatant
B30: MYT11767 (antibody, V domains shown)
VH: B22 VH
VL: B22 VL with H36Y, H94A
notes: hu7E6SVG variant, Ala in place of His at LCV position 94 (L3 02); screened as IgG in Expi293 supernatant
B31: MYT11774 (antibody, V domains shown)
VH: B22 VH
VL: B22 VL with H36Y, T101H
notes: hu7E6SVG variant, His at LCV position 101 (L3 09); screened as IgG in Expi293 supernatant
B32: MYT11765 (antibody, V domains shown)
VH: B22 VH
VL: B22 VL with H36Y, S60H
notes: hu7E6SVG variant, His at LCV position 60 (L2 07); screened as IgG in Expi293 supernatant
B33: MYT11764 (antibody, V domains shown)
VH: B22 VH
VL: B22 VL with H36Y, E59H
notes: hu7E6SVG variant, His at LCV position 59 (L2 06); screened as IgG in Expi293 supernatant
B34: MYT11772 (antibody, V domains shown)
VH: B22 VH
VL: B22 VL with H36Y, P99H
notes: hu7E6SVG variant, His at LCV position 99 (L3 07); screened as IgG in Expi293 supernatant
B35: MYT11771 (antibody, V domains shown)
VH: B22 VH
VL: B22 VL with H36Y, L98H
notes: hu7E6SVG variant, His at LCV position 98 (L3 06); screened as IgG in Expi293 supernatant

What was measured:
[1] = molecular target: T1, Human TROP2 Protein, His Tag (Acro …); test: BLI (Octet)
[2] = molecular target: T2, Human TROP2 Protein, His Tag (Acro …); test: BLI (Octet) [1/2]
[3] = molecular target: T3, Human TROP2 Protein, His Tag (Acro …); test: BLI (Octet) [2/2]
Experimental: After allowing for four days of protein expression, cell culture supernatants were collected, quantified by SDS-PAGE analysis (DNS), and the pH dependence of the variant was evaluated using biolayer interferometry (BLI) on an Octet RED 96e instrument. Briefly, cell culture supernatants were diluted based on qualitative expression level of the variant determined by visual examination of SDS-PAGE gels, 5 μL of cell culture supernatant was diluted into 195 μL of 1×PBST, pH 7.4 for high expressors, 25 μL of cell culture supernatant was diluted into 175 μL of 1×PBST, pH 7.4 for medium expressors and 100 μL of cell culture supernatant was diluted into 100 μL of 1×PBST, pH 7.4 for low expressors for loading onto the sensor tips. The resulting diluted supernatants were then captured on an anti-human Fc sensor (Forte Bio). A baseline was established using 1×PBST (50 mM Potassium Phosphate Buffer+150 mM NaCl+0.05% Tween 20) pH 7.4, and the sensor was associated with 50 nM of TROP2 (Human TROP2 Protein, His Tag, Acro Biosystems) in 1×PBST pH 7.4 for 120 sec to generate an association curve. In the dissociation phase, the antibody-antigen complex on the sensor was exposed to 1×PBST pH 7.4 or pH 5.4, for 300 sec. Association and dissociation phase curves were examined for the starting ABPC antibody (with no substitutions) and each corresponding antibody variant at pH 5.4 and pH 7.4 to inform on two criteria: a) enhanced dissociation (i.e., higher koff values) at pH 5.4 due to histidine or alanine substitution compared to the starting ABPC, (with no substitutions), and b) reduced dissociation at pH 7.4 (i.e., lower koff values) compared to pH 5.4 in the antibody variant itself and with the starting ABPC (with no substitutions). […] It was also noted that while some mutations obliterated TROP2 binding, others were tolerated with little or n change in TROP2 binding kinetics.

| Binder | binding result [1] | binding result [3] | other results |
| --- | --- | --- | --- |
| B1 | binds | – | – |
| B2 | binds | – | – |
| B3 | – | – | binding result [2]: binds |
| B4 | binds | – | – |
| B5 | – | – | binding result [2]: binds |
| B6 | binds | – | – |
| B7 | binds | – | – |
| B8 | binds | – | – |
| B9 | – | – | binding result [2]: binds |
| B10 | binds | – | – |
| B11 | – | – | binding result [2]: binds |
| B12 | binds | – | – |
| B13 | binds | – | – |
| B14 | – | – | binding result [2]: binds |
| B15 | – | – | binding result [2]: binds |
| B16 | binds | – | – |
| B17 | binds | – | – |
| B18 | – | – | binding result [2]: binds |

| Binder | binding result [1] | binding result [3] | other results |
| --- | --- | --- | --- |
| B19 | binds | – | – |
| B20 | binds | – | – |
| B21 | – | – | binding result [2]: binds |
| B22 | – | binds | – |
| B23 | – | binds | – |
| B24 | – | no binding (tested: 50 nM) | – |
| B25 | – | binds | – |
| B26 | – | binds | – |
| B27 | – | binds | – |
| B28 | – | binds | – |
| B29 | – | binds | – |
| B30 | – | binds | – |
| B31 | – | binds | – |
| B32 | – | binds | – |
| B33 | – | binds | – |
| B34 | – | binds | – |
| B35 | – | no binding (tested: 50 nM) | – |
